Test results: publication PMC5430537, “The tarantula toxin β/δ-TRTX-Pre1a highlights the importance of the S1-S2 voltage-sensor region for sodium channel subtype selectivity” (Scientific Reports, 2017)
Bridge positions count the residues as written; N and C are the ends. Peptide text beside a SMILES is read from it.

Key:
NaV1.7 VSD IV = conditions: cited from earlier work
Text: (§1) NaV channel fast inactivation is controlled by the movement of the DIV voltage-sensing domain[17]. […] However, all these peptides share less than 50% similarity with Pre1a (See Fig. 1d) and have very differ ...

hNaV1.1 [1] = molecular target: T1, hNaV1.1 (Homo sapiens, UniProt P35498); conditions: hNaV1.3 and hNaV1.1 peak current; cited from earlier work
Text: as §1

hNaV1.3 = hNaV1.3 and hNaV1.1 peak current; cited from earlier work
Text: as §1

rNaV1.2 = molecular target: T2, rNaV1.2 (Rattus norvegicus, UniProt P04775); test: Two-electrode voltage clamp, rNaV1.2 expressed in Xenopus oocytes; assay type: cell-based; conditions: α-subunit alone, clamped at −90 mV, 50 ms step to −10 or 0 mV, recombinant Pre1a, n ≥ 5, read-out: peak current inhibition IC50
T2 construct: expressed in transfected cells; host or cells: Xenopus laevis oocytes (cRNA injection, alpha subunit alone)
Experimental: (§2) The preparation and injection of Xenopus laevis oocytes and NaV channel recordings using two-electrode voltage-clamp (TEVC) were carried out as described previously. Capped cRNA encoding rat NaV1.2, NaV1.3 and NaV1.4, and human NaV1.5 and NaV1.7 were injected at 20–40 ng of cRNA/oocyte and kept at 17–18 °C in ND96 solution containing (in mM) 96 NaCl, 2 KCl, 1 CaCl2, 2 MgCl2, 5 HEPES, 5 pyruvic acid, 50 µg/ml gentamicin (pH 7.4), and horse serum (2.5%). Membrane currents were recorded 2–5 days after injection. Oocytes were clamped at −90 mV and currents were elicited by a 50 ms depolarising step to −10 or 0 mV every 10 s for concentration response curves. Both peak and late current (50 ms post peak) were analysed. The concentration response curves were fitted to the Hill equation (GraphPad Prism 6). Current-voltage (I-V) relationships and voltage-dependence of fast inactivation were determined using a family of 100 ms conditioning pulses from −100 mV to +50 mV (+60 mV for rNaV1.3) in 5 mV steps, followed by a test depolarisation step to 0 mV with a 20 s sweep interval from a holding potential of −90 mV. […] The half-activation potential (V 1/2) was determined using a Boltzmann fit (GraphPad Prism 6). […]

rNaV1.3 = molecular target: T3, rNaV1.3 (Rattus norvegicus, UniProt P08104); test: Two-electrode voltage clamp, rNaV1.3 expressed in Xenopus oocytes; assay type: cell-based
T3 construct: expressed in transfected cells; host or cells: Xenopus laevis oocytes (cRNA injection, alpha subunit alone)
Text: We analysed the rate of fast inactivation (defined as tau, τinact, or the time to reach 36.8% of a single exponential fit of the current decay) and the degree of persistent sodium current measured at 50 ms of depolarisation (NaV1.2 and 1.7) and 100 ms for rNaV1.3 due to the longer time required to reach complete inactivation in the oocyte expression system without β1.
The preparation and injection of Xenopus laevis oocytes and NaV channel recordings using two-electrode voltage-clamp (TEVC) were carried out as described previously. Capped cRNA encoding rat NaV1.2, NaV1.3 and NaV1.4, and human NaV1.5 and NaV1.7 were injected at 20–40 ng of cRNA/oocyte and kept at 17–18 °C in ND96 solution containing (in mM) 96 NaCl, 2 KCl, 1 CaCl2, 2 MgCl2, 5 HEPES, 5 pyruvic acid, 50 µg/ml gentamicin (pH 7.4), and horse serum (2.5%). Membrane currents were recorded 2–5 days after injection. Oocytes were clamped at −90 mV and currents were elicited by a 50 ms depolarising step to −10 or 0 mV every 10 s for concentration response curves. Both peak and late current (50 ms post peak) were analysed. The concentration response curves were fitted to the Hill equation (GraphPad Prism 6). Current-voltage (I-V) relationships and voltage-dependence of fast inactivation were determined using a family of 100 ms conditioning pulses from −100 mV to +50 mV (+60 mV for rNaV1.3) in 5 mV steps, followed by a test depolarisation step to 0 mV with a 20 s sweep interval from a holding potential of −90 mV. To determine the voltage-dependence of activation non-normalised peak current was used from the I-V family to calculate channel conductance using the equation: G(V) = I/(V − V rev), in which I, V, and V rev represent inward NaV current, test potential, and reversal potential, respectively. The half-activation potential (V 1/2) was determined using a Boltzmann fit (GraphPad Prism 6). All data points are shown as the pIC50 ± S.E.M., as well as the IC50. Replicates (n) represent separate experimental oocytes. Pre1a was resuspended in ND96 solution containing 0.1% bovine serum albumin for all activity analysis. […]

hNaV1.1 [2] = molecular target: T1, hNaV1.1; test: QPatch automated patch clamp, HEK293 cells stably co-expressing hNaV1.1 and NaVβ1; assay type: cell-based; conditions: HEK
Experimental: (§3) For patch clamp analysis, HEK293 cells stably co-expressing the hNaV1.1, hNaV1.6, or hNaV1.7 α-subunit with the NaVβ1-subunit (SB Drug Discovery) were cultured following manufacturer guidelines. Cells were removed from culture at 70% confluency using Detachin (Genlantis) and resuspended to 5 × 10^6 cells/mL in Ex-Cell ACF CHO Medium (Life Technologies) supplemented with 25 mM HEPES (Sigma-Aldrich) and 1 × Glutamax (Life Technologies) before being transferred to the Q-Patch Q-Stirrer and allowed to recover for 30 min before assay.
(§4) The external solution contained (in mM): 140 NaCl, 4 KCl, 2 CaCl2, 1 MgCl2, 10 HEPES, 20 TEA-Cl, 10 glucose, pH 7.4 (with NaOH) and adjusted to 315 mOsm 0.05% BSA was added to prevent adsorptive loss of peptide. The intracellular solution contained (in mM): 140 CsF, 1/5 EGTA/CsOH, 10 HEPES and 10 NaCl, pH 7.4 (with CsOH) and adjusted to 320 mOsm. Whole-cell patch-clamp experiments were performed at room temperature on a QPatch-16 automated electrophysiology platform (Biolin Scientific) using 16-channel planar patch chip plates (Q-Plates) with a patch hole diameter of 1 µm and resistance of 2 ± 0.1 MΩ. […] Pre1a concentrations were incubated for a fixed time of 5–10 min to allow steady-state activity, monitored by the I-T plot.

hNaV1.6 = hNaV1.6 (Homo sapiens, UniProt Q9UQD0); test: QPatch automated patch clamp, HEK293 cells stably co-expressing hNaV1.6 and NaVβ1; assay type: cell-based; conditions: HEK, with NaVβ1, QPatch16, 5–10 min incubation, holding −100 mV; n ≥ 6; read-out: peak current inhibition IC50
Experimental: as §3, §4

hNaV1.7 [3] = molecular target: T4, hNaV1.7 (Homo sapiens, UniProt Q15858); test: QPatch automated patch clamp, HEK293 cells stably co-expressing hNaV1.7 and NaVβ1; assay type: cell-based
Experimental: as §3, §4

hNaV1.7 [4] = molecular target: T4, hNaV1.7; test: Two-electrode voltage clamp, hNaV1.7 expressed in Xenopus oocytes; assay type: cell-based; parameters: expressed in transfected cells; host or cells: Xenopus laevis oocytes (cRNA injection, alpha subunit alone)
Experimental: as §2

NaV channel DII = conditions: mutagenesis; cited from earlier work
Text: The striking differences in effects on NaV1.1, 1.2 and 1.3 are of particular significance for understanding the molecular basis of Pre1a’s subtype selectivity as these three channels have essentially identical S3-S4 linker regions in both DII and DIV (Fig. 7a) (note that NaV1.1 DII S3-S4 has an M to V ...

NaV channels = conditions: cited from earlier work
Text: These VSD modulating peptides have been described to modify channel gating in three distinct ways depending on the domain they target and the effect on that domain[17]. Domain IV of the NaV channel α-subunit uniquely controls inactivation of the channel, thus spider peptides that interact with and hinder the normal function of VSDIV slow or inhibit fast inactivation of the channel and may result in persistent current. Conversely, spider venom peptides that interact with DI, DII, and DIII VSD modulate channel activation. Most of those discovered to date cause a shift in the voltage- ... || NaV channel fast inactivation is controlled by the movement of the DIV voltage-sensing domain[17]. […] However, all these peptides share less than 50% similarity with Pre1a (See Fig. 1d) and have very differ ...

[5] = molecular target: human NaV1.5 α-subunit (human) (UniProt Q14524)
[6] = molecular target: human NaV1.7 α-subunit (in oocytes) (human) (UniProt Q15858)
[7] = molecular target: rat NaV1.2 α-subunit (rat) (UniProt P04775)
[8] = molecular target: rat NaV1.3 α-subunit (rat) (UniProt P08104)
[9] = molecular target: rat NaV1.4 α-subunit (rat) (UniProt P15390)
[10] = molecular target: rat NaV1.3 α-subunit (rat) (UniProt P08104); remark: listed apart in the source
[11] = molecular target: rat NaV1.3 α-subunit (rat) (UniProt P08104); remark: listed apart in the source
[12] = molecular target: human NaV1.1 α-subunit (in HEK293 cells) (human) (UniProt P35498)
[13] = molecular target: human NaV1.6 α-subunit (in HEK293 cells) (human) (UniProt Q9UQD0)
[14] = molecular target: human NaV1.7 α-subunit (in HEK293 cells) (human) (UniProt Q15858)
[15] = molecular target: human NaV1.1 α-subunit (in HEK293 cells) (human) (UniProt P35498); remark: listed apart in the source
[16] = molecular target: human NaV1.7 α-subunit (in oocytes) (human) (UniProt Q15858); remark: listed apart in the source
[17] = molecular target: rat NaV1.2 α-subunit (rat) (UniProt P04775); remark: listed apart in the source
[18] = molecular target: rat NaV1.3 α-subunit (rat) (UniProt P08104); remark: listed apart in the source
[19] = molecular target: KV2.1 chimaera with the S3-S4 linker region of hNaV1.7 DII
[20] = molecular target: KV2.1 chimaera with the S3-S4 linker region of hNaV1.7 DIV

T3 sequence (P08104 whole entry): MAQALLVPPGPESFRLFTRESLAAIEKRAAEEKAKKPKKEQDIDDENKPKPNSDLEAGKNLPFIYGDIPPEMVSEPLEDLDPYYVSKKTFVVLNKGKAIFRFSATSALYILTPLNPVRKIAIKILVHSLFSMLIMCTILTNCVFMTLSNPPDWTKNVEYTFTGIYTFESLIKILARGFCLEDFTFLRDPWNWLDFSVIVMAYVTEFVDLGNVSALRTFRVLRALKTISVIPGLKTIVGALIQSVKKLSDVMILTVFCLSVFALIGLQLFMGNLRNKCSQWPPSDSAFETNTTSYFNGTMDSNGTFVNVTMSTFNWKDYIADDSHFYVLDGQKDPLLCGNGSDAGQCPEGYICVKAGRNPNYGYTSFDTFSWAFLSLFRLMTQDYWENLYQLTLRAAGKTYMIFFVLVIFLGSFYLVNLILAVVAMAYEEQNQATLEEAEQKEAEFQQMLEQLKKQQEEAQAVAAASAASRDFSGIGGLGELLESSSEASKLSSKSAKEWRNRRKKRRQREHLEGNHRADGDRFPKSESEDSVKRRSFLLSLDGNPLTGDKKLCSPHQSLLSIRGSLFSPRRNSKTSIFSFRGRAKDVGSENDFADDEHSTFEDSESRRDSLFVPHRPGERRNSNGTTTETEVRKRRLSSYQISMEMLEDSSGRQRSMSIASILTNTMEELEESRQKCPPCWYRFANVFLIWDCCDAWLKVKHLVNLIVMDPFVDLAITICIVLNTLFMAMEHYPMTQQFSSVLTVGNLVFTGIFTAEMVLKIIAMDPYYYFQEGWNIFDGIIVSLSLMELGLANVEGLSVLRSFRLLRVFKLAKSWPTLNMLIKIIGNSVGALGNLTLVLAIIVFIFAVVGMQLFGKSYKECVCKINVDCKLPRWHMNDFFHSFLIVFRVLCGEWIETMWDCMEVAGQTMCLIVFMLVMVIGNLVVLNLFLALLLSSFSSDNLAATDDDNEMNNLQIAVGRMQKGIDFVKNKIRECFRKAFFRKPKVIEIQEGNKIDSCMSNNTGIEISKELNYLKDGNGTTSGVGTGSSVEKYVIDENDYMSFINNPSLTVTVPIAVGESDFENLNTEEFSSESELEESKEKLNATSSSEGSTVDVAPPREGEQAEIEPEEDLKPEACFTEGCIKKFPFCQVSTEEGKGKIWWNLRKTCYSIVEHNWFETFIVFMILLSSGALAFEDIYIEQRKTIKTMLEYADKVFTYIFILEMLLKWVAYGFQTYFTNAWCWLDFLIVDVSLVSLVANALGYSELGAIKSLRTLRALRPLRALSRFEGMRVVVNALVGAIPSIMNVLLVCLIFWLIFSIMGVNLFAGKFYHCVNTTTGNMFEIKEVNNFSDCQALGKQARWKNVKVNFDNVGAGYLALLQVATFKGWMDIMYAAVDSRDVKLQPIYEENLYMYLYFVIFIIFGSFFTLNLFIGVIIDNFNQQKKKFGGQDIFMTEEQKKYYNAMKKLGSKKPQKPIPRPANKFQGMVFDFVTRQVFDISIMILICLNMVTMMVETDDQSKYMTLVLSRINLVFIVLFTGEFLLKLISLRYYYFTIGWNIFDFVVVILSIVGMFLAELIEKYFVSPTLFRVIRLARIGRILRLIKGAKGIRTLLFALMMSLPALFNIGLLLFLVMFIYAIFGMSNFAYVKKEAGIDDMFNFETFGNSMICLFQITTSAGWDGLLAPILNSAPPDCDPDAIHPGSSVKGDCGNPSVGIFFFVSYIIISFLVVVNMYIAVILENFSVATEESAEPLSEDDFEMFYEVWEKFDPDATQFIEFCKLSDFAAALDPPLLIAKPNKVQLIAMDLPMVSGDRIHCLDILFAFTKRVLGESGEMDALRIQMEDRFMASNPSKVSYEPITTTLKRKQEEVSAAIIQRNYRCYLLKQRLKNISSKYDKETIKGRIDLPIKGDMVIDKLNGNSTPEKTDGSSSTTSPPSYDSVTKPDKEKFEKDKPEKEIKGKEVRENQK
rat NaV1.3 α-subunit (rat), sequence (P08104 whole entry): as above
rat NaV1.2 α-subunit (rat), sequence (P04775 whole entry): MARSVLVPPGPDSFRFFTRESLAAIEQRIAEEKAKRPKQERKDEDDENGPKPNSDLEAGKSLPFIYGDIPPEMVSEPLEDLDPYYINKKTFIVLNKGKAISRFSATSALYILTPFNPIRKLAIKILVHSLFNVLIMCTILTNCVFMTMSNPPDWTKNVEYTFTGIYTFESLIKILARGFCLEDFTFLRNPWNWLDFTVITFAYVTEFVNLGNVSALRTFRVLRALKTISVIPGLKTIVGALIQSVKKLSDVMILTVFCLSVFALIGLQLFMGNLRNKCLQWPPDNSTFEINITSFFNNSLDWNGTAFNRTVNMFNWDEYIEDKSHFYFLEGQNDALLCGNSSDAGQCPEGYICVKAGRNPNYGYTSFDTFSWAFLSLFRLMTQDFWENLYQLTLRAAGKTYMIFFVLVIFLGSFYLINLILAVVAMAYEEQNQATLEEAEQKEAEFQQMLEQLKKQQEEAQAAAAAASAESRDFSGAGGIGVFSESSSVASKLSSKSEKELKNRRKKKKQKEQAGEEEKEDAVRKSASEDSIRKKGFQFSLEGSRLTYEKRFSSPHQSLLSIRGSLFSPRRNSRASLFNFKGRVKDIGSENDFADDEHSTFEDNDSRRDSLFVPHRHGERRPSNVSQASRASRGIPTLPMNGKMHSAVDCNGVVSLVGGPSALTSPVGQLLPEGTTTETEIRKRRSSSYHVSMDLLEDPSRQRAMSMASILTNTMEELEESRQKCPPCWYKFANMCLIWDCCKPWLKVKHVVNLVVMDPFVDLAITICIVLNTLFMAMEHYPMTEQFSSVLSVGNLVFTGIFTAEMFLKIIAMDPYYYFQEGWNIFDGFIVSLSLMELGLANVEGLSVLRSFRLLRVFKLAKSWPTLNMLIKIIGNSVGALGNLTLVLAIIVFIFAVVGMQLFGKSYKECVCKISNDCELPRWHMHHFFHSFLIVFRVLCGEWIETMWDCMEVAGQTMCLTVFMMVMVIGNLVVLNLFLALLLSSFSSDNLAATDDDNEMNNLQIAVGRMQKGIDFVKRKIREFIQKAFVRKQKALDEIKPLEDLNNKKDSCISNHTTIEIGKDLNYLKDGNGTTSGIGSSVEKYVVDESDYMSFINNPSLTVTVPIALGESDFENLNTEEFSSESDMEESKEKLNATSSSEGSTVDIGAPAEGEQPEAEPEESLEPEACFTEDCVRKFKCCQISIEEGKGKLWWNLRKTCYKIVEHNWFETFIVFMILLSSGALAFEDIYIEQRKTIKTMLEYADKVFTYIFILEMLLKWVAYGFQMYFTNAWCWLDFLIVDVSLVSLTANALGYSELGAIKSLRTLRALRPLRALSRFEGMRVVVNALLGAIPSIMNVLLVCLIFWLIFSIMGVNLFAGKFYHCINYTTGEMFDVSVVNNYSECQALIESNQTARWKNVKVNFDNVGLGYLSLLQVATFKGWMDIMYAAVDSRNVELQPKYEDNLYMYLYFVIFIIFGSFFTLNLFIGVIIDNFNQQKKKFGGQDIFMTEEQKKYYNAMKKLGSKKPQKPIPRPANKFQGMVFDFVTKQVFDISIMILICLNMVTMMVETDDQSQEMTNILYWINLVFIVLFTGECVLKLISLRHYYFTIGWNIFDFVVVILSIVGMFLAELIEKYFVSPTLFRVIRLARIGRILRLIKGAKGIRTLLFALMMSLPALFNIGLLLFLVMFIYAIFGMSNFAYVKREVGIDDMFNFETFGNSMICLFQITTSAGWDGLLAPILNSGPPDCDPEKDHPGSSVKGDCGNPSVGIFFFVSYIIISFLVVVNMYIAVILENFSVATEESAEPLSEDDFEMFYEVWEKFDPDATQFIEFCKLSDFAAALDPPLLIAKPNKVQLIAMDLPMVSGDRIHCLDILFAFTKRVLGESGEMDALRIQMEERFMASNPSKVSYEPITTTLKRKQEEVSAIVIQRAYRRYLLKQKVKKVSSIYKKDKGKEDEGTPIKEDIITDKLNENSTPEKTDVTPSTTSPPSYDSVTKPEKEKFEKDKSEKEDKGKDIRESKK
T2 sequence (P04775 whole entry): as above

Compound: CCN1CC(n2nccc2-c2cc(C(F)(F)F)ccc2Oc2ccc(S(=O)(=O)Nc3ncns3)cc2C#N)C1 [GX-936]
- state in which VSD is arrested (NaV1.7 VSD IV): arrests the VSD in the inactivated state

Compound: O=C(Nc1ccc(S(=O)(=O)Nc2nccs2)cc1)C(c1ccccc1)c1ccccc1 [ICA-121431]
- selectivity (hNaV1.1 [1]): ~ 1000 fold
- selectivity (hNaV1.3): ~ 1000 fold

Compound: CC[C@H](C)[C@H](NC(=O)[C@H](CCCCN)NC(=O)[C@H](Cc1ccc(O)cc1)NC(=O)[C@H](CCCCN)NC(=O)[C@@H]1CSSC[C@@H]2NC(=O)[C@H](CCCCN)NC(=O)[C@H](CC(=O)O)NC(=O)[C@H](CC(N)=O)NC(=O)[C@H](CCCCN)NC(=O)[C@@H]3CCCN3C(=O)[C@H](CO)NC(=O)[C@@H]3CSSC[C@H](NC(=O)[C@H](CCCCN)NC(=O)[C@H](Cc4ccc(O)cc4)NC(=O)[C@H](CC(N)=O)NC(=O)[C@@H]4CCCN4C(=O)[C@H](CSSC[C@H](NC(=O)[C@H](CC(=O)O)NC(=O)[C@@H](N)CCC(=O)O)C(=O)N[C@@H](CC(C)C)C(=O)NCC(=O)N[C@@H](Cc4c[nH]c5ccccc45)C(=O)N[C@@H](Cc4ccccc4)C(=O)N[C@@H](CO)C(=O)N[C@@H](CCCNC(=N)N)C(=O)N3)NC2=O)C(=O)N[C@@H](CO)C(=O)N[C@@H](CO)C(=O)N[C@@H](CCCCN)C(=O)N[C@@H](CC(=O)O)C(=O)N[C@@H](CC(C)C)C(=O)N[C@@H](Cc2c[nH]c3ccccc23)C(=O)N1)C(=O)N[C@@H](Cc1c[nH]c2ccccc12)C(=O)O [Pre1a] (H-EDCLGWFSRCSPKNDKCCPNYKCSSKDLWCKYKIW-OH; disulfide 3-18, 10-23, 17-30)
- IC50 (rNaV1.2): 190 nM
- EC50 (rNaV1.3; late current at 100 ms, ± S.E.M.): 45.7 nM
- selectivity for inhibiting inactivation over activation (rNaV1.3; rNaV1.3 inactivation vs activation): more than 150 fold
- IC50 (rNaV1.3; recombinant Pre1a, ± S.E.M., read-out: peak current inhibition pIC50 (converted)): 7940 nM
- IC50 (hNaV1.1 [2]; QPatch16, read-out: peak current inhibition pIC50 (converted)): 57.5 nM
- EC50 (hNaV1.1 [2]; late current at 10 ms from peak, read-out: inhibition of fast inactivation pEC50 (converted)): 41.7 nM
- IC50 (hNaV1.6): 222 nM
- IC50 (hNaV1.7 [3]): 15.1 nM
- IC50 (hNaV1.7 [4]): 114 nM
- selectivity for inhibiting activation over NaV1.3 (hNaV1.7 [4]; NaV1.7 activation vs NaV1.3): ~ 70 fold

Compound: HwTxIV
- effect of divergent residues in S2 region 1 on activity (NaV channel DII): little effect on the activity

Compound: ProTx-II: spider peptide
- effect on peak current and fast inactivation (NaV channels): inhibit both peak current and fast inactivation of NaV channels

Compound: recombinant β/δ-TRTX-Pre1a (peptide)
- percent inhibition of peak current amplitude by 1 μM Pre1a (weak), two-electrode voltage clamp, Xenopus oocytes [5]: 8.6%
- IC50 of inhibition of peak inward current, two-electrode voltage clamp, Xenopus oocytes [6]: 114 nM
- IC50 of inhibition of peak inward current, two-electrode voltage clamp, Xenopus oocytes [7]: 190 nM
- IC50 of inhibition of peak inward current (weak), two-electrode voltage clamp, Xenopus oocytes [8]: 8000 nM
- percent inhibition of peak current amplitude by 1 μM Pre1a (weak), two-electrode voltage clamp, Xenopus oocytes [9]: 16.5%
- EC50 of inhibition of inactivation (late current at 100 ms), two-electrode voltage clamp, Xenopus oocytes [10]: 45.5 nM
- EC50 of inhibition of inactivation (late current), as printed in the legend, Xenopus oocytes [11]: 45 nM

Compound: β/δ-TRTX-Pre1a (synthetic or recombinant not stated for the experiment) (peptide)
- IC50 of inhibition of peak current, QPatch16 automated patch clamp, HEK cells [12]: 57.1 nM
- IC50 of inhibition of peak current, QPatch16 automated patch clamp, HEK cells [13]: 222 nM
- IC50 of inhibition of peak current, QPatch16 automated patch clamp, HEK cells [14]: 15 nM
- EC50 of inhibition of fast inactivation (late current at 10 ms from peak), QPatch, HEK cells [15]: 41.4 nM
- shift of the V1/2 of activation by 1 µM Pre1a, Xenopus oocytes [16]: 13.8 mV
- shift of the V1/2 of activation by 1 µM Pre1a, Xenopus oocytes [17]: 14.9 mV
- shift of the V1/2 of activation of the late current by 1 μM Pre1a, Xenopus oocytes [18]: 9.6 mV
- percent inhibition of outward (peak) current by 1 μM Pre1a [19]: 44%
- percent inhibition of outward (peak) current by 1 μM Pre1a [20]: 27.1%
